Test results published in paper PMC5124963, “Negative feedback regulation of ABA biosynthesis in peanut (Arachis hypogaea): a transcription factor complex inhibits AhNCED1 expression during water stress”.

Molecular target: T1, GST-AhAREB1 (Arachis hypogaea, UniProt G4X5C6 1-445)
T1 sequence: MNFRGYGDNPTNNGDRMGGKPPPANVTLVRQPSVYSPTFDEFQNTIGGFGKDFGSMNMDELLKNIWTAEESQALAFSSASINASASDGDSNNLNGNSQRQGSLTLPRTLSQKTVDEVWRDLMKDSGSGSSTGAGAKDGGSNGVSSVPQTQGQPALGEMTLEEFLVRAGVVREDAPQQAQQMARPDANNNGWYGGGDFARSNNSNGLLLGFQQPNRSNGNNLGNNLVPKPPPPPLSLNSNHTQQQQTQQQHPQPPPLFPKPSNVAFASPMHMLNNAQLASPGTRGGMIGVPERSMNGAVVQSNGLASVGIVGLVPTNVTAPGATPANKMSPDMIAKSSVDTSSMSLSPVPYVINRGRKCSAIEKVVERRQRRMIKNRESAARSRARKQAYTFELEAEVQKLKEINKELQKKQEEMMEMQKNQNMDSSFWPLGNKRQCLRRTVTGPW
Test: EMSA; LightShift Chemiluminescent EMSA kit (Pierce); buffer, salt, pH and temperature not stated
Conditions: protein: recombinant; tags: N-terminal GST (pGEX-4T-1); chain copies: 2; label: biotin

B1: WT probe, AhNCED1 promoter ABRE/NACRE (-1367) (dsDNA)
DNA 1: CTCATCAATTATCACGTGTGATTGCTCTCA
DNA 2: TGAGAGCAATCACACGTGATAATTGATGAG
binding result: binds
